Measured values reported in patent publication US20210388087A1 (Chugai, published 2021).
Where a chain is given by its changes, count along the chain named. In names and notes the source's numbering stands.

T1: Human CD3eg linker (human)
T1 construct: Single-chain construct; also called recombinant human CD3
T1 chain: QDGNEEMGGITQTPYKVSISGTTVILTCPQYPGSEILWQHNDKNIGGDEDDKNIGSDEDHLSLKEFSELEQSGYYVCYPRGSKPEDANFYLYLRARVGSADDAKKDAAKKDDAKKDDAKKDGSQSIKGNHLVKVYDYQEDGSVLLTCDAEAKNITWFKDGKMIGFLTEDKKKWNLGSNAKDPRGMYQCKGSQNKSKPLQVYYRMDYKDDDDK

B1: H183/L072 VL E27aW (antibody, name in Kabat numbering, V domains shown)
VH: QVQLVESGGGLVQPGRSLRLSCAASGFTFSNAWMHWVRQAPGKGLEWVAQIKDKGNAYAAYYAPSVKGRFTISRDDSKNSIYLQMNSLKTEDTAVYYCHYVHYASASTVLPAFGVDAWGQGTTVTVSS
VL: DIVMTQSPLSLPVTPGEPASISCQASQWLVHMNRNTYLHWYQQKPGQAPRLLIYKVSNRFPGVPDRFSGSGSGTDFTLKISRVEAEDVGVYYCAQGTSVPFTFGQGTKLEIK
B2: H183/L072 VL F55Q (antibody, name in Kabat numbering, V domains shown)
VH: B1 VH
VL: B1 VL with W28E, F60Q
B3: H183/L072 VL F55P (antibody, name in Kabat numbering, V domains shown)
VH: B1 VH
VL: B1 VL with W28E, F60P
B4: H183/L072 VL H27dE (antibody, name in Kabat numbering, V domains shown)
VH: B1 VH
VL: B1 VL with W28E, H31E
B5: H183/L072 VL F96E (antibody, name in Kabat numbering, V domains shown)
VH: B1 VH
VL: B1 VL with W28E, F101E
B6: H183/L072 VL H27dS (antibody, name in Kabat numbering, V domains shown)
VH: B1 VH
VL: B1 VL with W28E, H31S
B7: H183/L072 VL G91Q (antibody, name in Kabat numbering, V domains shown)
VH: B1 VH
VL: B1 VL with W28E, G96Q
B8: H183/L072 VL F55S (antibody, name in Kabat numbering, V domains shown)
VH: B1 VH
VL: B1 VL with W28E, F60S
B9: H183/L072 VL F96D (antibody, name in Kabat numbering, V domains shown)
VH: B1 VH
VL: B1 VL with W28E, F101D
B10: H183/L072 VL G91H (antibody, name in Kabat numbering, V domains shown)
VH: B1 VH
VL: B1 VL with W28E, G96H
B11: H183/L072 VL H27dN (antibody, name in Kabat numbering, V domains shown)
VH: B1 VH
VL: B1 VL with W28E, H31N
B12: H183/L072 VL F96S (antibody, name in Kabat numbering, V domains shown)
VH: B1 VH
VL: B1 VL with W28E, F101S
B13: H183/L072 VL E27aY (antibody, name in Kabat numbering, V domains shown)
VH: B1 VH
VL: B1 VL with W28Y
B14: H183/L072 VL G91E (antibody, name in Kabat numbering, V domains shown)
VH: B1 VH
VL: B1 VL with W28E, G96E
B15: H183/L072 VL F55A (antibody, name in Kabat numbering, V domains shown)
VH: B1 VH
VL: B1 VL with W28E, F60A
B16: H183/L072 VL F55T (antibody, name in Kabat numbering, V domains shown)
VH: B1 VH
VL: B1 VL with W28E, F60T
B17: H183/L072 VL G91S (antibody, name in Kabat numbering, V domains shown)
VH: B1 VH
VL: B1 VL with W28E, G96S
B18: H183/L072 VL F55G (antibody, name in Kabat numbering, V domains shown)
VH: B1 VH
VL: B1 VL with W28E, F60G
B19: H183/L072 VL F55L (antibody, name in Kabat numbering, V domains shown)
VH: B1 VH
VL: B1 VL with W28E, F60L
B20: H183/L072 VL H27dG (antibody, name in Kabat numbering, V domains shown)
VH: B1 VH
VL: B1 VL with W28E, H31G
B21: H183/L072 VL H34D (antibody, name in Kabat numbering, V domains shown)
VH: B1 VH
VL: B1 VL with W28E, H39D
B22: H183/L072 VL H27dQ (antibody, name in Kabat numbering, V domains shown)
VH: B1 VH
VL: B1 VL with W28E, H31Q
B23: H183/L072 VL F96Q (antibody, name in Kabat numbering, V domains shown)
VH: B1 VH
VL: B1 VL with W28E, F101Q
B24: H183/L072 VL F55M (antibody, name in Kabat numbering, V domains shown)
VH: B1 VH
VL: B1 VL with W28E, F60M
B25: H183/L072 VL H27dD (antibody, name in Kabat numbering, V domains shown)
VH: B1 VH
VL: B1 VL with W28E, H31D
B26: H183/L072 VL F55R (antibody, name in Kabat numbering, V domains shown)
VH: B1 VH
VL: B1 VL with W28E, F60R
B27: H183/L072 VL F96T (antibody, name in Kabat numbering, V domains shown)
VH: B1 VH
VL: B1 VL with W28E, F101T
B28: H183/L072 VL F55D (antibody, name in Kabat numbering, V domains shown)
VH: B1 VH
VL: B1 VL with W28E, F60D
B29: H183/L072 VL F55I (antibody, name in Kabat numbering, V domains shown)
VH: B1 VH
VL: B1 VL with W28E, F60I
B30: H183/L072 VL G91K (antibody, name in Kabat numbering, V domains shown)
VH: B1 VH
VL: B1 VL with W28E, G96K
B31: H183/L072 VL H34A (antibody, name in Kabat numbering, V domains shown)
VH: B1 VH
VL: B1 VL with W28E, H39A
B32: H183/L072 VL F55W (antibody, name in Kabat numbering, V domains shown)
VH: B1 VH
VL: B1 VL with W28E, F60W
B33: H183/L072 VL H27dK (antibody, name in Kabat numbering, V domains shown)
VH: B1 VH
VL: B1 VL with W28E, H31K
B34: H183/L072 VL G91D (antibody, name in Kabat numbering, V domains shown)
VH: B1 VH
VL: B1 VL with W28E, G96D
B35: H183/L072 VL F55N (antibody, name in Kabat numbering, V domains shown)
VH: B1 VH
VL: B1 VL with W28E, F60N
B36: H183/L072 VL F55K (antibody, name in Kabat numbering, V domains shown)
VH: B1 VH
VL: B1 VL with W28E, F60K
B37: H183/L072 VL F96K (antibody, name in Kabat numbering, V domains shown)
VH: B1 VH
VL: B1 VL with W28E, F101K
B38: H183/L072 VL F55V (antibody, name in Kabat numbering, V domains shown)
VH: B1 VH
VL: B1 VL with W28E, F60V
B39: H183/L072 VL F55E (antibody, name in Kabat numbering, V domains shown)
VH: B1 VH
VL: B1 VL with W28E, F60E
B40: H183/L072 VL G91T (antibody, name in Kabat numbering, V domains shown)
VH: B1 VH
VL: B1 VL with W28E, G96T
B41: H183/L072 VL H27dF (antibody, name in Kabat numbering, V domains shown)
VH: B1 VH
VL: B1 VL with W28E, H31F
B42: H183/L072 VL F55H (antibody, name in Kabat numbering, V domains shown)
VH: B1 VH
VL: B1 VL with W28E, F60H
B43: H183/L072 VL H34E (antibody, name in Kabat numbering, V domains shown)
VH: B1 VH
VL: B1 VL with W28E, H39E
B44: H183/L072 VL F96H (antibody, name in Kabat numbering, V domains shown)
VH: B1 VH
VL: B1 VL with W28E, F101H
B45: H183/L072 VL H27dT (antibody, name in Kabat numbering, V domains shown)
VH: B1 VH
VL: B1 VL with W28E, H31T

Target: T1, Human CD3eg linker
Assay: SPR; fold vs parent H183/L072

| Binder | fold change of affinity [fold] |
| --- | --- |
| B1 | 1.1 |
| B2 | 2.9 |
| B3 | 8.1 |
| B4 | 0 |
| B5 | 0 |
| B6 | 0 |
| B7 | 0 |
| B8 | 6.6 |
| B9 | 0 |
| B10 | 0 |
| B11 | 0 |
| B12 | 0 |
| B13 | 1.2 |
| B14 | 0 |
| B15 | 7.2 |
| B16 | 4.2 |
| B17 | 0 |
| B18 | 8.1 |
| B19 | 2.9 |
| B20 | 0 |
| B21 | 0 |
| B22 | 0 |
| B23 | 0 |

| Binder | fold change of affinity [fold] |
| --- | --- |
| B24 | 3.6 |
| B25 | 0 |
| B26 | 4 |
| B27 | 0 |
| B28 | 6.1 |
| B29 | 3.4 |
| B30 | 0 |
| B31 | 0.6 |
| B32 | 0.2 |
| B33 | 0 |
| B34 | 0 |
| B35 | 3.9 |
| B36 | 8.3 |
| B37 | 0 |
| B38 | 4.4 |
| B39 | 3.4 |
| B40 | 0 |
| B41 | 0.2 |
| B42 | 7.4 |
| B43 | 0 |
| B44 | 0 |
| B45 | 0 |
